In doi:10.1101/2020.12.21.423144 (bioRxiv, 2020):
Entries after “also recorded” stand apart in the source; their conditions may differ.

Assays:
[1] = target: the molecule itself; assay: SDS-PAGE and Western blot densitometry
P29274 = assay: SEC
SEC = target: the molecule itself; assay: SEC

B1: human adenosine A2A receptor, full-length wild type (receptor)
chain: MPIMGSSVYITVELAIAVLAILGNVLVCWAVWLNSNLQNVTNYFVVSLAAADIAVGVLAIPFAITISTGFCAACHGCLFIACFVLVLTQSSIFSLLAIAIDRYIAIRIPLRYNGLVTGTRAKGIIAICWVLSFAIGLTPMLGWNNCGQPKEGKNHSQGCGEGQVACLFEDVVPMNYMVYFNFFACVLVPLLLMLGVYLRIFLAARRQLKQMESQPLPGERARSTLQKEVHAAKSLAIIVGLFALCWLPLHIINCFTFFCPDCSHAPLWLMYLAIVLSHTNSVVNPFIYAYRIREFRQTFRKIIRSHVLRQQEPFKAAGTSARVLAAHGSDGEQVSLRLNGHPPGVWANGSAPHPERRPNGYALGLVSGGSAQESQGNTGLPDVELLSHELKGVCPEPPGLDDPLAQDGAGVS
dimer level (relative to monomer), with 5 mM TCEP [1]: 0.51 arbitrary units
dimer level (relative to monomer), without TCEP [1]: 1.14 arbitrary units
HMW oligomer level (relative to monomer) (P29274): ctrl: 0.88
total oligomer level (HMW oligomer and dimer, relative to monomer) (P29274): ctrl: 1.37; also recorded: WT: 1.34

B2: A2AR-N359ΔC with the ERR:AAA mutations (domain or fragment)
chain: MPIMGSSVYITVELAIAVLAILGNVLVCWAVWLNSNLQNVTNYFVVSLAAADIAVGVLAIPFAITISTGFCAACHGCLFIACFVLVLTQSSIFSLLAIAIDRYIAIRIPLRYNGLVTGTRAKGIIAICWVLSFAIGLTPMLGWNNCGQPKEGKNHSQGCGEGQVACLFEDVVPMNYMVYFNFFACVLVPLLLMLGVYLRIFLAARRQLKQMESQPLPGERARSTLQKEVHAAKSLAIIVGLFALCWLPLHIINCFTFFCPDCSHAPLWLMYLAIVLSHTNSVVNPFIYAYRIREFRQTFRKIIRSHVLRQQEPFKAAGTSARVLAAHGSDGEQVSLRLNGHPPGVWANGSAPHPAAAPN
HMW oligomer level (relative to monomer) (P29274): ERR:AAA: 0.38
total oligomer level (HMW oligomer and dimer, relative to monomer) (P29274): ERR:AAA: 0.85
dimer level (relative to monomer) (SEC): 0.48 arbitrary units
